Assay results as given in patent US20180155698.

Key:
[1] = biological target: TEE polymerase K276C,Q307E,Q451C (Bacillus stearothermophilus) (UniProt Q04957); test: BLI; details: first round 1.10 vs 0.4; second round after incorporation 4.83; very low binary signal; 900 nM, 100 mM KCl, 320 mM K-glutamate, 2 mM SrCl2; scale: ratio correct to highest incorrect signal
[2] = biological target: DSA polymerase K276C,Q451C (Bacillus stearothermophilus) (UniProt Q04957); test: BLI; details: first round 1.75 vs 0.9; second round after incorporation 1.60; 300 nM, 100 mM KCl, 320 mM K-glutamate, 2 mM SrCl2; lower binary and ternary signal than CBT in …; scale: ratio correct to highest incorrect signal

primed template, next correct nucleotides AT (Examples 3 and 5)
binding signal [1]: 2.75
binding signal [2]: 1.95
